Key:
[1] = target: ENO1 mutant 1-189 (human) (UniProt P06733); experiment: ELISA, 400 ng protein coated, 10 microgram of EN10 mAb
[2] = target: ENO1 mutant 1-297 (human) (UniProt P06733); experiment: as above
[3] = target: ENO1 with amino acid residues 297 to 434 deleted (human) (UniProt P06733); experiment: ELISA, ENO1 deletion mutant Δ297-434 coated, 10 microgram of EN10 mAb
Sequence of ENO1 with amino acid residues 297 to 434 deleted (human) (P06733 1-296, stated change not applied): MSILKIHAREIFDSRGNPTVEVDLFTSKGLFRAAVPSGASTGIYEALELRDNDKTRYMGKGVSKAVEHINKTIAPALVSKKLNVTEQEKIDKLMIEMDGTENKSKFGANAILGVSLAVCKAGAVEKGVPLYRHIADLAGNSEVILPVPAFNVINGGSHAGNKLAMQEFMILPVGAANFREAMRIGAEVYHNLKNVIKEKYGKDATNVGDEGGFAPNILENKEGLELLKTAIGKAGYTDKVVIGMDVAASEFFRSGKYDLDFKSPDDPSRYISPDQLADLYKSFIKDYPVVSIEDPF

B1: EN10 mAb (antibody, V domains shown)
VH: EVQLQQSGPELVKPGASVKMSCKASGYTFTSCVMNWVKQKPGQGLEWIGYINPYNDGTKYNEKFKGKATLTSDKSSSTAYMELSSLTSEDSAVYYCAREGFYYGNFDNWGQGTTLTVSS
VL: DIQMTQSPASLSASVGETVTITCRASENIYSYLTWYQQKQGKSPQLLVYNAKTLPEGVPSRFSGSGSGTQFSLKINSLQPEDFGSYYCQHHYGTPYTFGGGTKLEITR
OD405 [1]: 1.43 OD405
OD405 as percent of that of the wild type ENO1 [1]: 42%
OD405 [2]: 1.56 OD405
OD405 as percent of that of the wild type ENO1 [2]: 39%
OD450 [3]: 0.47
